# B1: DYRK1B (parent)
# chain: ARKYFERLPGGGWTLRRTKELRKD
# Variants of: B1
# Experiment: protein stability index of a GFP-peptide fusion (GPS, HEK-293T) (PSI 1-6); higher = more stable
# Conditions: c terminus: a fixed tail appended
# 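Note: lentivirally expressed fusions sorted by FACS into six bins by GFP to DsRed ratio, PSI derived from sequencing read proportions per bin multiplied by bin number.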
row,Variant,protein stability index
1,W13A,3.72
2,R2W,2.38
3,R2Y,3.85
4,E6N,3.07
5,E6C,3.85
6,E6Y,3.62
7,E6S,3.21
8,E6A,4.08
9,E6R,4.86
10,E6D,3.69
11,E6Q,2.55
12,E6I,3.38
13,E6P,3.39
14,E6H,3.34
15,E6W,2.67
16,E6M,2.36
17,E6F,3.37
18,E6K,2.78
19,E6L,2.64
20,E6V,3.35
21,E6T,3.78
22,K3A,3.79
23,K3V,2.69
24,K3M,3.12

row,Variant,protein stability index
1,K3L,2.48
2,K3E,4.13
3,K3W,2.6
4,K3S,3.55
5,K3N,2.5
6,K3P,2.96
7,K3T,3.55
8,K3C,3.24
9,K3I,1.92
10,K3F,1.98
11,K3H,3.56
12,K3G,3.51
13,K3R,3.9
14,K3Y,2.58
15,K3Q,3.67
16,G10M,3.27
17,G10W,2.97
18,G10N,4.09
19,G10D,4.16
20,G10A,2.93
21,G10Y,2.35
22,G10V,3.45
23,G10I,2.38
24,G10S,3.19

row,Variant,protein stability index
1,G10F,2.63
2,G10T,3.19
3,G10R,3.75
4,Y4Q,3.34
5,Y4I,2.87
6,Y4S,3.37
7,Y4T,3.14
8,Y4R,4.29
9,Y4W,2.2
10,Y4D,4.48
11,Y4L,3.14
12,Y4A,2.7
13,Y4F,2.91
14,Y4N,4.17
15,Y4C,3.29
16,Y4P,4.82
17,Y4E,3.76
18,Y4M,3.21
19,Y4H,4.07
20,Y4G,4.37
21,Y4V,3.44
22,F5D,3.84
23,F5K,4.25
24,F5R,3.58

row,Variant,protein stability index
1,F5L,3.83
2,F5E,4.26
3,F5S,4.35
4,F5H,3.82
5,F5V,3.98
6,F5N,4.02
7,F5Y,4.08
8,F5I,2.91
9,F5A,3.86
10,F5G,3.63
11,F5M,2.98
12,F5Q,3.71
13,G11D,2.93
14,G11V,2.48
15,G11F,2.89
16,G11Q,3.34
17,G11I,2.79
18,G11H,2.4
19,G11T,3.46
20,G11Y,2.73
21,G11N,3.17
22,G11L,3.11
23,G11K,2.06
24,G11M,2.78

row,Variant,protein stability index
1,G11S,2.49
2,G11C,3.26
3,G11W,2.82
4,G11P,2.74
5,R7N,2.83
6,R7I,2.64
7,R7G,2.84
8,R7V,3.33
9,R7S,3.23
10,R7P,3.94
11,R7A,3.3
12,R7L,2.77
13,R7F,2.41
14,R7T,2.99
15,R7C,2.88
16,R7Q,4.13
17,R7D,3.21
18,R7M,3.67
19,R7E,4.31
20,R7Y,3.25
21,R7H,3.08
22,R7W,2.81
23,R7K,3.52
24,P9A,2.83

row,Variant,protein stability index
1,P9L,2.43
2,P9H,2.48
3,P9T,3.02
4,P9R,3.22
5,P9D,4.24
6,P9K,2.5
7,P9F,1.87
8,P9Y,1.9
9,P9I,2.13
10,P9V,2.96
11,P9Q,3.67
12,P9W,2.11
13,P9E,3.41
14,P9C,1.91
15,P9N,1.97
16,L8Q,3.38
17,L8N,3.4
18,L8R,3.25
19,L8E,3.71
20,L8C,3.18
21,L8D,4.19
22,L8I,3.5
23,L8V,3.84
24,L8F,2.57

row,Variant,protein stability index
1,L8T,4.18
2,L8Y,4.07
3,L8M,3.47
4,L8H,3.32
5,L8S,5.45
6,L8P,3.85
7,L8W,2.13
8,G12F,2.93
9,G12T,2.98
10,G12H,3.85
11,G12S,3.11
12,G12V,2.15
13,G12P,2.96
14,G12Q,2.95
15,G12D,4.15
16,G12N,2
17,G12L,2.57
18,G12A,3.06
19,G12I,2.03
20,G12E,3.02
21,G12K,3.81
22,G12Y,2.42
23,G12M,2.95

# Reference: the supplement of paper PMC10567573
